Experimental data: the RNAGym collection of RNA variant scans (doi:10.7554/elife.80360)

B1: HDV Ribozyme (parent)
chain: GGCCGGCAUGGUCCCAGCCUCCUCGCUGGCGCCGGCUGGGCAACAUUCCGAGGGGACCGUCCCCUCGGUAAUGGCGAAUGGGACCCA

Variants of: B1
Assay: self-cleavage, relative activity (ratio to wild type); higher = more cleavage; co-transcriptional

| Variant | self-cleavage |
| --- | --- |
| GGCCGGCAUGGUCCCGGCCUCCUCUCUGGCGCCGGCUGGGCAACAUUCCGAGGGGACCGUCCCCUCGGUAAUGGCGAAUGGGACCCA [A16G G25U] | 0.0875 |
| GGCCGGCAUGGUCCCGGCCUCCUCACUGGCGCCGGCUGGGCAACAUUCCGAGGGGACCGUCCCCUCGGUAAUGGCGAAUGGGACCCA [A16G G25A] | 0.192 |
| GGCCGGCAUGGUCCCUGCCUCCUCGCUGGCGCCGGCUGGGCCACAUUCCGAGGGGACCGUCCCCUCGGUAAUGGCGAAUGGGACCCA [A16U A42C] | 0.262 |
| GGCCGGCAUGGUCCCUGCCUCCUCGCUGGCGCCGGCUGGGCAACAUUCCGAGGGGACGGUCCCCUCGGUAAUGGCGAAUGGGACCCA [A16U C58G] | 0.807 |
| GGCCGGCAUGGUCCCUGCCUCCUCGCUGGCGCCGGCUGGGCAACAUUCCGAGGGGACCGUCCCCUCGGUACUGGCGAAUGGGACCCA [A16U A71C] | 0.942 |
| GGCCGGCAUGGUCCCUGCCUCCUCGCUGGCGCCGGCUGGGCAACAUUCCGAGGGGACCGUCCCUUCGGUAAUGGCGAAUGGGACCCA [A16U C64U] | 0.866 |
| GGCCGGCAUGGUCCCUGACUCCUCGCUGGCGCCGGCUGGGCAACAUUCCGAGGGGACCGUCCCCUCGGUAAUGGCGAAUGGGACCCA [A16U C18A] | 0.107 |
| GGCCGGCAUGGUCCCUGCCUCCUCGCUGGCGCCGGCUGGGCAACAUUCCGAGGGGACCGUCCCCUCGGUAAUGGCGAGUGGGACCCA [A16U A78G] | 0.332 |
| GGCCGGCAUGGUCCCUGCCUCCUCGCUGGCGCCAGCUGGGCAACAUUCCGAGGGGACCGUCCCCUCGGUAAUGGCGAAUGGGACCCA [A16U G34A] | 0.166 |
| GGCCGGCAUGGUCCCGGCCUCCUCGCUGGCGCCGGCUGGGCAACAUUCCGAGGGGACCGCCCCCUCGGUAAUGGCGAAUGGGACCCA [A16G U60C] | 1.14 |
| GGCCGGCAUGGUCCCUGCCUCCUCGCUGGCGCCGGCUGGGCAAAAUUCCGAGGGGACCGUCCCCUCGGUAAUGGCGAAUGGGACCCA [A16U C44A] | 0.598 |
| GGCCGGCAUGGUCCCUGCCUCCUCGCUGGCGCCGGCUGGGCAAUAUUCCGAGGGGACCGUCCCCUCGGUAAUGGCGAAUGGGACCCA [A16U C44U] | 0.6 |
| GGCCGGCAUGGUCCCUGCCUCCUCGCUGGCGCCGGCUGGGCAACAUUCCGAGGGGAUCGUCCCCUCGGUAAUGGCGAAUGGGACCCA [A16U C57U] | 0.831 |
| GGCCGGCAUGGUCCCGGCCUCCUCGCUGGCGCCGGCUGUGCAACAUUCCGAGGGGACCGUCCCCUCGGUAAUGGCGAAUGGGACCCA [A16G G39U] | 0.582 |
| GGCCGGCAUGGUCCCUGCCUCCUCGCUGGCGCCGGCUGGGCAACUUUCCGAGGGGACCGUCCCCUCGGUAAUGGCGAAUGGGACCCA [A16U A45U] | 0.831 |
| GGCCGGCAUGGUCCCUGCCUCCUCGCUGGCGCCGGCUGGGCAACCUUCCGAGGGGACCGUCCCCUCGGUAAUGGCGAAUGGGACCCA [A16U A45C] | 0.462 |
| GGCCGGCAUGGUCCCUGCCUCCUCGCUGGCGCCGGCUGGGCAACAUUCCGAGGGGACCGUCCCCUCGGUAAUGGCGAAUGGGACCCG [A16U A87G] | 0.968 |
| GGCCGGCAUGGUCCCUGCCUCCUCGCUGGCGCCGGCUGGGCAACAUUCCGAGGGGACCGUCCCCUCGGUAAUGGCGAAUGGGACCCC [A16U A87C] | 1.04 |
| GGCCGGCAUGGUCCCGGCCUCCUCGCUGGCGCCGACUGGGCAACAUUCCGAGGGGACCGUCCCCUCGGUAAUGGCGAAUGGGACCCA [A16G G35A] | 0.696 |
| GGCCGGCAUGGUCCCGGCCCCCUCGCUGGCGCCGGCUGGGCAACAUUCCGAGGGGACCGUCCCCUCGGUAAUGGCGAAUGGGACCCA [A16G U20C] | 0.128 |
| GGCCGGCAUGGUCCCUGCCUCCUCGCUAGCGCCGGCUGGGCAACAUUCCGAGGGGACCGUCCCCUCGGUAAUGGCGAAUGGGACCCA [A16U G28A] | 0.0475 |
| GGCCGGCAUGGUCCCGGCCUCCUCGCUGGCGCCGGCUGGGCAACAUUCCGAGGGGACCGUCCCCUCGGUAAUGGCGAAUGUGACCCA [A16G G81U] | 0.489 |

| Variant | self-cleavage |
| --- | --- |
| GGCCGGCAUGGUCCCGGCCUCCUCGCUGGCGCCGGCUGGGCAACAUUCCGAGGGGACCGUCCCCUCGGUAAUGGCGAAUGCGACCCA [A16G G81C] | 0.369 |
| GGCCGGCAUGGUCCCUGCCUCCUCGCUGGCGCCGGCUGGGCAACAUUCCGAGGGGACCGUCCCCUCGGUAAUGGCGUAUGGGACCCA [A16U A77U] | 0.511 |
| GGCCGGCAUGGUCCCGGCCUCCUCGCUGGCGCCGGCUGGGCAACAUACCGAGGGGACCGUCCCCUCGGUAAUGGCGAAUGGGACCCA [A16G U47A] | 1.16 |
| GGCCGGCAUGGUCCCGGCCUCCUCGCUGGCGCCGGCUGGGCAACAUCCCGAGGGGACCGUCCCCUCGGUAAUGGCGAAUGGGACCCA [A16G U47C] | 0.962 |
| GGCCGGCAUGGUCCCUGCCUCCUCGCUGGCGCCGGCUGGGCAACAUUCCGAGGGGACCGUCCCCUCGGUUAUGGCGAAUGGGACCCA [A16U A70U] | 0.764 |
| GGCCGGCAUGGUCCCGGCCUCCUCGCUGGCGCCGGCUGGCCAACAUUCCGAGGGGACCGUCCCCUCGGUAAUGGCGAAUGGGACCCA [A16G G40C] | 0.135 |
| GGCCGGCAUGGUCCCUGCCUUCUCGCUGGCGCCGGCUGGGCAACAUUCCGAGGGGACCGUCCCCUCGGUAAUGGCGAAUGGGACCCA [A16U C21U] | 0.122 |
| GGCCGGCAUGGUCCCGGCCUCCUCGCUGGCACCGGCUGGGCAACAUUCCGAGGGGACCGUCCCCUCGGUAAUGGCGAAUGGGACCCA [A16G G31A] | 0.46 |
| GGCCGGCAUGGUCCCUGCCUCCUUGCUGGCGCCGGCUGGGCAACAUUCCGAGGGGACCGUCCCCUCGGUAAUGGCGAAUGGGACCCA [A16U C24U] | 0.314 |
| GGCCGGCAUGGUCCCGGCCUCCUCGCUGGCGCCGGCUGGGCAACAUUCCGAGGGGACCGUCCCCUCGGUAAUGGCUAAUGGGACCCA [A16G G76U] | 1.29 |
| GGCCGGCAUGGUCCCUGCCUCCUCGCUGGCGCCGGCUGGGCAACAUUCCGAGGGGACCGUCCCCUUGGUAAUGGCGAAUGGGACCCA [A16U C66U] | 1.05 |
| GGCCGGCAUGGUCCCGGCCUCCUCGCUGGCGCCGGCUGGGCAACAUUCCGAGGGGACCGUCCCCUCGGUAACGGCGAAUGGGACCCA [A16G U72C] | 0.831 |
| GGCCGGCAUGGUCCCUGCCUCCUCGCUGGCGCCGGCUGGGCAACAUUUCGAGGGGACCGUCCCCUCGGUAAUGGCGAAUGGGACCCA [A16U C48U] | 1.07 |
| GGCCGGCAUGGUCCCUGCCUCCUCGCUGGCGCCGGCUGGGCAACAUUACGAGGGGACCGUCCCCUCGGUAAUGGCGAAUGGGACCCA [A16U C48A] | 1.07 |
| GGCCGGCAUGGUCCCGGCCUCCUCGCUGGCGCCGGCUGGGCAACAUUCCGAGGGGACCGUCCCCUCGGUAAUGGCGAAUGGGACCGA [A16G C86G] | 1.2 |
| GGCCGGCAUGGUCCCGGCCUCCUCGCUGGCGCCGGCUGGGCAACAUUCCGAGGGGACCGUCCCCUCGGUAAUGGCGAAUGGGACCUA [A16G C86U] | 1.2 |
| GGCCGGCAUGGUCCCGGCCUCCUCGCUGGCGCCGGCUGGGCAACAUUCCGAGGGGACCGUCCCCUCGGUAAUGGCGAAUGGGACCAA [A16G C86A] | 0.76 |
| GGCCGGCAUGGUCCCUGCCUCGUCGCUGGCGCCGGCUGGGCAACAUUCCGAGGGGACCGUCCCCUCGGUAAUGGCGAAUGGGACCCA [A16U C22G] | 0.161 |
| GGCCGGCAUGGUCCCUGCCUCUUCGCUGGCGCCGGCUGGGCAACAUUCCGAGGGGACCGUCCCCUCGGUAAUGGCGAAUGGGACCCA [A16U C22U] | 0.612 |
| GGCCGGCAUGGUCCCUGCAUCCUCGCUGGCGCCGGCUGGGCAACAUUCCGAGGGGACCGUCCCCUCGGUAAUGGCGAAUGGGACCCA [A16U C19A] | 0.285 |
| GGCCGGCAUGGUCCCUGCCUCCUCGCUGGCGCCGGCUGGGCAACAUUCCGAGGGGACCGUCCCCUCGGUAAUGGCGAAUGGGUCCCA [A16U A83U] | 0.584 |
| GGCCGGCAUGGUCCCUGCCUCCUCGCUGGCGCCGGCUGGGCAACAUUCCGAGGGGACCGUCCCCUCGGUAAUGGCGAAUGGGGCCCA [A16U A83G] | 0.567 |

| Variant | self-cleavage |
| --- | --- |
| GGCCGGCAUGGUCCCUGCCUCCUCGCUGGGGCCGGCUGGGCAACAUUCCGAGGGGACCGUCCCCUCGGUAAUGGCGAAUGGGACCCA [A16U C30G] | 0.119 |
| GGCCGGCAUGGUCCCUGCCUCCUCGCUGGUGCCGGCUGGGCAACAUUCCGAGGGGACCGUCCCCUCGGUAAUGGCGAAUGGGACCCA [A16U C30U] | 0.68 |
| GGCCGGCAUGGUCCCUGCCUCCUCGCUGGCGCCGGCUGGGCAACAUUCCGAGGGGACCGUCCACUCGGUAAUGGCGAAUGGGACCCA [A16U C63A] | 1.08 |
| GGCCGGCAUGGUCCCUGCCUCCUCGCUGGCGCCGGCUGGGCAACAUUCCGAGGGGACCGUCCUCUCGGUAAUGGCGAAUGGGACCCA [A16U C63U] | 1.14 |
| GGCCGGCAUGGUCCCUGCCUCCUCGAUGGCGCCGGCUGGGCAACAUUCCGAGGGGACCGUCCCCUCGGUAAUGGCGAAUGGGACCCA [A16U C26A] | 1.05 |
| GGCCGGCAUGGUCCCGGCCUCCUCGCUAGCGCCGGCUGGGCAACAUUCCGAGGGGACCGUCCCCUCGGUAAUGGCGAAUGGGACCCA [A16G G28A] | 0.131 |
| GGCCGGCAUGGUCCCUGCCUCCUCUCUGGCGCCGGCUGGGCAACAUUCCGAGGGGACCGUCCCCUCGGUAAUGGCGAAUGGGACCCA [A16U G25U] | 0.166 |
| GGCCGGCAUGGUCCCUGCCUCCUCACUGGCGCCGGCUGGGCAACAUUCCGAGGGGACCGUCCCCUCGGUAAUGGCGAAUGGGACCCA [A16U G25A] | 0.0707 |
| GGCCGGCAUGGUCCCGGCCUCCUCGCUGGCGCCGGCUGGGCAACAUUCCGAGGGGACCGUCCCCUCGGUAAUUGCGAAUGGGACCCA [A16G G73U] | 0.391 |
| GGCCGGCAUGGUCCCUGCCUCCUCGCUGGCGCCGGCUGGGCAACAUUCCGAGGGGACCGUCCCCUCGGUAAUGGCGAAUGGGACCGA [A16U C86G] | 0.853 |
| GGCCGGCAUGGUCCCGGCCUCCUCGCUGUCGCCGGCUGGGCAACAUUCCGAGGGGACCGUCCCCUCGGUAAUGGCGAAUGGGACCCA [A16G G29U] | 0.0354 |
| GGCCGGCAUGGUCCCGGCCUCCUCGCUGGCGCCGGCUGGGCAACAAUCCGAGGGGACCGUCCCCUCGGUAAUGGCGAAUGGGACCCA [A16G U46A] | 0.646 |
| GGCCGGCAUGGUCCCUGCCUCCUCGCUGGCGCCGGCUGGGCAACAUUCCGAGGGGACCGUCCCCUCGGUAAUGGGGAAUGGGACCCA [A16U C75G] | 0.119 |
| GGCCGGCAUGGUCCCGGCCUCCUCGCUGGCGCCGGCUGGGCAACAUUCCGAGGCGACCGUCCCCUCGGUAAUGGCGAAUGGGACCCA [A16G G54C] | 1.08 |
| GGCCGGCAUGGUCCCUGCCUCCUCGCUGGCGACGGCUGGGCAACAUUCCGAGGGGACCGUCCCCUCGGUAAUGGCGAAUGGGACCCA [A16U C32A] | 0.177 |
| GGCCGGCAUGGUCCCUGCCUCCUCGCUGGCGUCGGCUGGGCAACAUUCCGAGGGGACCGUCCCCUCGGUAAUGGCGAAUGGGACCCA [A16U C32U] | 0.727 |
| GGCCGGCAUGGUCCCGGCCUCCUCGCUGGCGCCGGCUGGGCAACAUUCCGAGGGGACCGUCCCCUCAGUAAUGGCGAAUGGGACCCA [A16G G67A] | 0.886 |
| GGCCGGCAUGGUCCCGGCCUCCUCGCUGGCGCCGGCUGGGCAACAUUCCGAGGGGACCGUCCCCUCUGUAAUGGCGAAUGGGACCCA [A16G G67U] | 0.831 |
| GGCCGGCAUGGUCCCGACCUCCUCGCUGGCGCCGGCUGGGCAACAUUCCGAGGGGACCGUCCCCUCGGUAAUGGCGAAUGGGACCCA [A16G G17A] | 0.617 |
| GGCCGGCAUGGUCCCGGCCUCCUCGCAGGCGCCGGCUGGGCAACAUUCCGAGGGGACCGUCCCCUCGGUAAUGGCGAAUGGGACCCA [A16G U27A] | 0.703 |
